Test results: paper PMC9482650, “Quantitative fragmentomics allow affinity mapping of interactomes” (Nature Communications, 2022)

Columns and labels:
Assay in all cases: holdup assay
Design in all cases: key: below the threshold = too weak to quantify, mostly under pKd 3.1 to 4
Conditions in all cases: plain residues with an end cap or a label only (N-terminal biotin on a linker: ahx)
[1] = molecular target: T1, APBA2_2, Q99767
T1 sequence (Q99767 654-744, limits assumed, looked up): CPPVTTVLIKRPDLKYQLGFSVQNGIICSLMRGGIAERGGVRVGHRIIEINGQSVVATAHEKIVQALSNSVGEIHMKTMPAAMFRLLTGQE

[2] = molecular target: T2, ARHGEF11, O15085
T2 sequence (O15085 42-136, limits assumed, looked up): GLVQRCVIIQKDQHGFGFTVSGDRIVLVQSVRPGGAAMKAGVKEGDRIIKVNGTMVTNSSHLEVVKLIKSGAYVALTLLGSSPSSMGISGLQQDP

[3] = molecular target: T3, DFNB31_2, Q9P202
T3 sequence (Q9P202 274-371, limits assumed, looked up): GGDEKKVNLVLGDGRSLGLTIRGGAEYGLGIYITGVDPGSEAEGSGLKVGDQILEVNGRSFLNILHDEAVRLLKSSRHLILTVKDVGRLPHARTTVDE

[4] = molecular target: T4, DFNB31_3, Q9P202
T4 sequence (Q9P202 811-907, limits assumed, looked up): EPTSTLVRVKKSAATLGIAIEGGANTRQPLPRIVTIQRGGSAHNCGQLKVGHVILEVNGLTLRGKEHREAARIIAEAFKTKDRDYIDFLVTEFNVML

[5] = molecular target: DLG1_3, Q12959
[6] = molecular target: GOPC, Q9HD26
[7] = molecular target: GORASP2, Q9H8Y8
[8] = molecular target: GRID2IP_2, A4D2P6
[9] = molecular target: GRIP2_4, Q9C0E4
[10] = molecular target: GRIP2_5, Q9C0E4
[11] = molecular target: HTRA1, Q92743
[12] = molecular target: HTRA2, O43464
[13] = molecular target: T5, HTRA3, P83110
T5 sequence (P83110 354-453, limits assumed, looked up): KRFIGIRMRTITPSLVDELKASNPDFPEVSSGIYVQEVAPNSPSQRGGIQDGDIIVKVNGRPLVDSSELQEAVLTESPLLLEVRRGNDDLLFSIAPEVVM

[14] = molecular target: IL16_3, Q14005
[15] = molecular target: Inadl_1, Q8NI35
[16] = molecular target: Inadl_4, Q8NI35
[17] = molecular target: Inadl_5, Q8NI35
[18] = molecular target: Inadl_9, Q8NI35
[19] = molecular target: T6, LNX2_2, Q8N448
T6 sequence (Q8N448 334-432, limits assumed, looked up): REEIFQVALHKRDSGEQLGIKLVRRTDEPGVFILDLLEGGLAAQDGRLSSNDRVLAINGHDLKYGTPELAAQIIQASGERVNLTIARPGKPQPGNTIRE

[20] = molecular target: T7, LNX2_3, Q8N448
T7 sequence (Q8N448 463-564, limits assumed, looked up): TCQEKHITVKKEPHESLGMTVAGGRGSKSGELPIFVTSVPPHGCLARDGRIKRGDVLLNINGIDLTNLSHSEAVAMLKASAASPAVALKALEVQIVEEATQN

[21] = molecular target: MAGI1_1, Q96QZ7
[22] = molecular target: MAGI3_2, Q5TCQ9
[23] = molecular target: MAST1, Q9Y2H9
[24] = molecular target: T8, MPDZ_10, O75970
T8 sequence (O75970 1624-1722, limits assumed, looked up): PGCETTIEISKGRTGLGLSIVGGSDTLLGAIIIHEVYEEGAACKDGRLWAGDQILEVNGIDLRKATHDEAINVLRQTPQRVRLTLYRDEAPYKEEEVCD

[25] = molecular target: T9, NHERF3_3, Q5T2W1
T9 sequence (Q5T2W1 238-333, limits assumed, looked up): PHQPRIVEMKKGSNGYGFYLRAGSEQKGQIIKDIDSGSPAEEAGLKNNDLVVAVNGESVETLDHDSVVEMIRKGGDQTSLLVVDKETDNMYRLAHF

[26] = molecular target: PICK1, Q9NRD5
[27] = molecular target: SNX27, Q96L92
[28] = molecular target: TJP1_2, Q07157
[29] = molecular target: TJP1_3, Q07157
TJP1_3, Q07157, sequence (Q07157 416-512): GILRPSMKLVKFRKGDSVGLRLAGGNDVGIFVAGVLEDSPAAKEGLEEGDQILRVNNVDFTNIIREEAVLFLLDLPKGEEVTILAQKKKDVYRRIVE

DLG1_3, Q12959, sequence (Q12959 457-571): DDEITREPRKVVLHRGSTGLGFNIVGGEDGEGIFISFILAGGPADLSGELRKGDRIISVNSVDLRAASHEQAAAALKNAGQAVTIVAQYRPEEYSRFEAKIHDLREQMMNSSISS
GRID2IP_2, A4D2P6, sequence (A4D2P6 272-370): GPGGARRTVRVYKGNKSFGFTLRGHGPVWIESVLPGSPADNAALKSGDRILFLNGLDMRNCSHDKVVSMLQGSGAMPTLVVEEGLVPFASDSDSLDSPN
MAST1, Q9Y2H9, sequence (Q9Y2H9 962-1065): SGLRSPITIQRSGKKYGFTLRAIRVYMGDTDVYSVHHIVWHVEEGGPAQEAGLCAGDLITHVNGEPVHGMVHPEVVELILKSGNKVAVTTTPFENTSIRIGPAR
HTRA1, Q92743, sequence (Q92743 360-477): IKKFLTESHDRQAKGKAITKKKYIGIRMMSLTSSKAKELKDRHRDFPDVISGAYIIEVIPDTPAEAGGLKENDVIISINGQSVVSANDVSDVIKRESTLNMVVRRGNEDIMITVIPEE
GRIP2_4, Q9C0E4, sequence (Q9C0E4 446-548): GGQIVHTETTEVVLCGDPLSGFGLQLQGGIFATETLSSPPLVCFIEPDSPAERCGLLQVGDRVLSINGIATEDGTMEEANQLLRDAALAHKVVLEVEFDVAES
IL16_3, Q14005, sequence (Q14005 1107-1207): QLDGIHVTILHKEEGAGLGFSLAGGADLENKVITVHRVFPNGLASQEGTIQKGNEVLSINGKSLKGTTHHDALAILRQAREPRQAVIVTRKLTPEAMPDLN
GRIP2_5, Q9C0E4, sequence (Q9C0E4 544-642): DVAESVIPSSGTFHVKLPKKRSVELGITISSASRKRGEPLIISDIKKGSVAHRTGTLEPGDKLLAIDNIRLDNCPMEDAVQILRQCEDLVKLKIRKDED
Inadl_1, Q8NI35, sequence (Q8NI35 113-229): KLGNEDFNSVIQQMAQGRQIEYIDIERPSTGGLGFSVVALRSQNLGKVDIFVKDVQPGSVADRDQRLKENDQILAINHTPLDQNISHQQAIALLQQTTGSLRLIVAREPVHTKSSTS
Inadl_5, Q8NI35, sequence (Q8NI35 673-780): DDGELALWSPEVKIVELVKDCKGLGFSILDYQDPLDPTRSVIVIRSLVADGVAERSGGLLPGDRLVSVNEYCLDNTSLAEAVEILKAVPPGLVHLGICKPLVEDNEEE
MAGI1_1, Q96QZ7, sequence (Q96QZ7 1-106): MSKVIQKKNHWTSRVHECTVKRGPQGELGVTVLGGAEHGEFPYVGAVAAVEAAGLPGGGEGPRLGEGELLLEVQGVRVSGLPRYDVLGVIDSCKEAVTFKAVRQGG
PICK1, Q9NRD5, sequence (Q9NRD5 17-115): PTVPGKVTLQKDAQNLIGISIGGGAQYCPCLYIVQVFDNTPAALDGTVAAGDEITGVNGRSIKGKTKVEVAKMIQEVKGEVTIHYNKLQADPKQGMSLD
MAGI3_2, Q5TCQ9, sequence (Q5TCQ9 398-503): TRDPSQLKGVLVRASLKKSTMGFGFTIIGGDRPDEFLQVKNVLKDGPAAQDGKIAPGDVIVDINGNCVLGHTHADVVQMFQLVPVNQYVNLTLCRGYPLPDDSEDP
Inadl_4, Q8NI35, sequence (Q8NI35 547-651): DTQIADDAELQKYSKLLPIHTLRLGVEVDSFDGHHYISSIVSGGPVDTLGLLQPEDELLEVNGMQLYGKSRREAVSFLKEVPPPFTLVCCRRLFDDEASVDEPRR
HTRA2, O43464, sequence (O43464 355-458): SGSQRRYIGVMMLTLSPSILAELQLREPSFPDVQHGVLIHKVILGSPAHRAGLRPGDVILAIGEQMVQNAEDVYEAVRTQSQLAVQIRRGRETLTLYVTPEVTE
TJP1_2, Q07157, sequence (Q07157 181-274): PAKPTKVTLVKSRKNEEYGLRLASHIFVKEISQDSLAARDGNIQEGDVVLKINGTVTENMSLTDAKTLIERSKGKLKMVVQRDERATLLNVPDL
Inadl_9, Q8NI35, sequence (Q8NI35 1530-1615): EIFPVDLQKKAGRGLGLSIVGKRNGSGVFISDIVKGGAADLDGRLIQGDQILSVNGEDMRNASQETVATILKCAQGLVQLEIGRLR

## SSSNSEDTEM [NHERF3, Q5T2W1]
[1]
  pKd: below the threshold
[2]
  pKd: below the threshold
[3]
  pKd: below the threshold
[4]
  pKd: below the threshold
[5]
  pKd: below the threshold
[6]
  pKd: below the threshold
[7]
  pKd: below the threshold
[8]
  pKd: below the threshold
[9]
  pKd: below the threshold
[10]
  pKd: below the threshold
[11]
  pKd: below the threshold
[12]
  pKd: below the threshold
[13]
  pKd: below the threshold
[14]
  pKd: below the threshold
[15]
  pKd: below the threshold
[16]
  pKd: below the threshold
[17]
  pKd: below the threshold
[18]
  pKd: below the threshold
[19]
  pKd: below the threshold
[20]
  pKd: below the threshold
[21]
  pKd: below the threshold
[22]
  pKd: below the threshold
[23]
  pKd: 3.94
[24]
  pKd: below the threshold
[25]
  pKd: below the threshold
[26]
  pKd: below the threshold
[27]
  pKd: 4.16
[28]
  pKd: below the threshold
[29]
  pKd: below the threshold

## RNCSTNDSLL [ADRB2, P07550]
[1]
  pKd: below the threshold
[2]
  pKd: below the threshold
[3]
  pKd: below the threshold
[4]
  pKd: below the threshold
[5]
  pKd: below the threshold
[6]
  pKd: below the threshold
[7]
  pKd: 3.52
[8]
  pKd: below the threshold
[9]
  pKd: below the threshold
[10]
  pKd: below the threshold
[11]
  pKd: 3.62
[12]
  pKd: below the threshold
[13]
  pKd: below the threshold
[14]
  pKd: below the threshold
[15]
  pKd: below the threshold
[16]
  pKd: below the threshold
[17]
  pKd: below the threshold
[18]
  pKd: below the threshold
[19]
  pKd: below the threshold
[20]
  pKd: below the threshold
[21]
  pKd: below the threshold
[22]
  pKd: below the threshold
[23]
  pKd: 3.74
[24]
  pKd: 3.69
[25]
  pKd: below the threshold
[26]
  pKd: below the threshold
[27]
  pKd: 3.6
[28]
  pKd: below the threshold
[29]
  pKd: below the threshold
